Measured values: article PMC2063703 (The Journal of Cell Biology, 2006)
Numbering of substitutions follows the chain as printed. Numbers in names are those of the source.

B1: GST-Vta1^ΔN68 (domain or fragment)
chain: AEDSDKSLHVMNTLIHDQEKAKIYMLNFTMSLYNEKLKQLKDGPWDVMLKRSLWCCIDLFSCILHLWKENISETSTNSLQKRIKYCKIYLSKLAKGEIGSSDEKTLDYADFADDSEEIKDEDVDHQTSDLENNNNDKVEGLAPKDQTTSYEPVDEVPEFIDDADSVNEEEQTVDKNEDAITKDEQQVVKKEVDLTRPSAPSEPAAAEHKSYTKDELTKIMDRASKIEQIQKLAKYAISALNYEDLPTAKDELTKALDLLNSI
B2: Vps4 (enzyme)
chain: MSTGDFLTKGIELVQKAIDLDTATQYEEAYTAYYNGLDYLMLALKYEKNPKSKDLIRAKFTEYLNRAEQLKKHLESEEANAAKKSPSAGSGSNGGNKKISQEEGEDNGGEDNKKLRGALSSAILSEKPNVKWEDVAGLEGAKEALKEAVILPVKFPHLFKGNRKPTSGILLYGPPGTGKSYLAKAVATEANSTFFSVSSSDLVSKWMGESEKLVKQLFAMARENKPSIIFIDEVDALTGTRGEGESEASRRIKTELLVQMNGVGNDSQGVLVLGATNIPWQLDSAIRRRFERRIYIPLPDLAARTTMFEINVGDTPCVLTKEDYRTLGAMTEGYSGSDIAVVVKDALMQPIRKIQSATHFKDVSTEDDETRKLTPCSPGDDGAIEMSWTDIEADELKEPDLTIKDFLKAIKSTRPTVNEDDLLKQEQFTRDFGQEGN
B3: Vps4^E233Q (enzyme)
chain: B2 chain with E233Q
B4: GST-VSL^SBP1 (domain or fragment)
chain: EDFARAQKYCKYAGSALQYEDVSTAVQNLQKALKLLTTGRE
B5: GST-VSL^Vta1 (domain or fragment)
chain: RASKIEQIQKLAKYAISALNYEDLPTAKDELTKALDLLNSI
B6: GST-Vta1^Δ37–68 (natural protein)
chain: MASNAARVVATAKDFDKVGLGIIGYYLQLYAVELILAEDSDKSLHVMNTLIHDQEKAKIYMLNFTMSLYNEKLKQLKDGPWDVMLKRSLWCCIDLFSCILHLWKENISETSTNSLQKRIKYCKIYLSKLAKGEIGSSDEKTLDYADFADDSEEIKDEDVDHQTSDLENNNNDKVEGLAPKDQTTSYEPVDEVPEFIDDADSVNEEEQTVDKNEDAITKDEQQVVKKEVDLTRPSAPSEPAAAEHKSYTKDELTKIMDRASKIEQIQKLAKYAISALNYEDLPTAKDELTKALDLLNSI
B7: GST-SBP1 (natural protein)
chain: MAALAPLPPLPAQFKSIQHHLRTAQEHDKRDPVVAYYCRLYAMQTGMKIDSKTPECRKFLSKLMDQLEALKKQLGDNEAITQEIVGCAHLENYALKMFLYADNEDRAGRFHKNMIKSFYTASLLIDVITVFGELTDENVKHRKYARWKATYIHNCLKNGETPQAGPVGIEEDNDIEENEDAGAASLPTQPTQPSSSSTYDPSNMPSGNYTGIQIPPGAHAPANTPAEVPHSTGVASNTIQPTPQTIPAIDPALFNTISQGDVRLTPEDFARAQKYCKYAGSALQYEDVSTAVQNLQKALKLLTTGRE
B8: GST-Vta1 (natural protein)
chain: MASNAARVVATAKDFDKVGLGIIGYYLQLYAVELILSEEDRSQEMTALATELLDTIEAFKKEIGGESEAEDSDKSLHVMNTLIHDQEKAKIYMLNFTMSLYNEKLKQLKDGPWDVMLKRSLWCCIDLFSCILHLWKENISETSTNSLQKRIKYCKIYLSKLAKGEIGSSDEKTLDYADFADDSEEIKDEDVDHQTSDLENNNNDKVEGLAPKDQTTSYEPVDEVPEFIDDADSVNEEEQTVDKNEDAITKDEQQVVKKEVDLTRPSAPSEPAAAEHKSYTKDELTKIMDRASKIEQIQKLAKYAISALNYEDLPTAKDELTKALDLLNSI
B9: His6-Vta1 (natural protein)
chain: B8 chain
B10: GST-Vta1^K322A (natural protein)
chain: B8 chain with K322A
B11: Vta1 (purified recombinant, bacterially expressed) (natural protein)
chain: B8 chain
B12: GST-Vta1^S306A (natural protein)
chain: B8 chain with S306A

How the values were obtained:
[1] = biological target: B3; experiment: pull-down
[2] = biological target: Vps4 (yeast) (UniProt P52917)
[3] = biological target: B11; experiment: SEC
[4] = biological target: the molecule itself; experiment: SEC
[5] = biological target: the molecule itself; experiment: AUC
[6] = biological target: B3; experiment: SEC

B1
binding result [1]: binds

B2
Km of the Vps4 protein concentration-dependent ATPase activity, with 1 μM Vta1 [2]: 0.118 µM
Km of the Vps4 protein concentration-dependent ATPase activity, with 6 μM Vta1 [2]: 0.069 µM
Km of the Vps4 protein concentration-dependent ATPase activity, without Vta1 [2]: 1.1 µM

B3
stoichiometry N [3]: ~1
stoichiometry N [4]: 2

B4
binding result [1]: binds

B5
binding result [1]: binds

B6
binding result [1]: binds

B7
binding result [1]: binds

B8
binding result [1]: binds

B9
stoichiometry N [5]: 2

B10
binding result [1]: binds

B11
binding result [6]: binds

B12
binding result [1]: binds
